B1: SNAP91 (parent)
chain: FATASAAVPVSTSKPSSDLLDLQP

Variants of: B1
Experiment: protein stability index of a GFP-peptide fusion (GPS, HEK-293T) (PSI 1-6); higher = more stable
Conditions: c terminus: a fixed tail appended
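Further: lentivirally expressed fusions sorted by FACS into six bins by GFP to DsRed ratio, PSI derived from sequencing read proportions per bin multiplied by bin number.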

Protein stability index: each site, then its substitutions
K14: G 3.97; R 3.87; D 4.36; L 3.64; F 2.6; A 4.16; Y 3.21; M 3.48; V 4.05; T 3.97; P 4.15; I 3.5; H 3.58; N 3.89; E 4.45; S 4.01; Q 4.61; C 3.61; W 2.03
D18: R 2.84; V 3.17; C 3.42; P 3.3; I 3.37; M 2.87; Y 3.37; S 2.99; W 2.13; F 2.23; E 3.98; L 2.77; N 3.14; A 3.44; H 3.04; Q 3.19; T 3.17; K 2.98; G 3.42
P9: H 3.46; S 3.26; N 3.75; A 2.96; L 1.92; R 3.05; K 3.23; G 2.3; M 2.29; I 1.87; E 3.99; Q 3.31; F 1.93; C 2.27; T 3.73; V 2.24; D 3.78
A6: K 4.23; V 2.98; I 2.41; R 3.31; P 3.54; D 4.22; L 2.47; T 3.5; Q 3.67; W 4.07; H 3.19; G 3.5; M 2.92; E 4.31; S 3.78; F 2.31; N 4.69; Y 1.96; C 2.46
V10: R 2.85; I 3.39; L 3.63; C 3.18; P 4.36; G 3.37; H 4.01; F 2.69; D 4.18; A 3.87; N 3.94; K 4.04; S 3.97; T 4.17; M 3.55; E 4.23; Q 4.61; Y 4.29
P15: I 3.52; Y 2.99; M 3.17; F 2.54; G 3.97; H 3.96; C 3.15; T 3.74; Q 3.44; S 3.73; L 2.72; D 4.17; E 4.89; W 2.19; A 3.28; R 2.9; K 3.57; N 3.85; V 3.14
A7: L 2.93; H 3.24; N 3.9; D 4.5; Q 3.79; E 4.4; G 3.72; S 3.55; C 3.07; V 3.05; M 4.01; P 3.66; I 3.14; K 3.54; T 3.24; F 3.89; R 3.63
A4: L 2.89; W 1.64; C 2.66; P 4.19; F 2.06; S 3.8; G 3.63; E 4.57; Y 3.73; M 3.31; N 3.81; V 3.9; R 3.16; K 3.8; D 4.72; I 3.04; H 4.06; T 3.72; Q 3.9
S16: M 3.43; P 3.5; Y 3.08; H 3.71; C 3.36; V 3.6; W 1.54; D 4.24; L 2.83; I 3.24; F 2.99; A 4.02; E 3.87; K 3.43; G 3.57; Q 3.93; N 3.81; T 3.03; R 3.3
T3: W 1.64; S 3.39; L 3.35; Y 1.98; C 3.45; A 2.8; E 4.26; I 2.81; K 3.22; H 3.71; M 3.16; V 4.38; G 2.65; F 2.15; Q 4.15; D 3.8; N 3.24; P 2.41
T12: W 2.61; Q 3.97; P 2.1; Y 3.28; I 3.51; A 4.36; R 3.13; G 3.91; N 3.7; S 4.49; M 2.78; K 3.61; V 3.73; L 3.74; D 4.04; C 2.58; E 4.44; F 3.07; H 4.3
A2: P 4.27; D 5; R 3.46; I 2.2; W 2.96; N 3.85; E 4.5; K 3.99; S 4.01; Y 3.77; G 4.09; F 3.21; L 3.75; M 3.79; Q 4.11; H 2.71; V 1.65; T 3.18
S13: G 3.95; T 3.38; K 3.72; W 2.67; C 2.57; N 3.66; Q 3.8; I 3.42; D 3.62; H 3.66; Y 3.36; E 3.67; P 3.83; L 3.09; F 3.22; A 3.82; R 3.94; V 3.52; M 3.67
S17: G 3.68; Q 3.72; W 3.31; P 3.79; E 4.13; Y 3.2; I 2.88; R 3.25; H 3.66; T 4.21; A 3.68; V 3.47; K 3.47; M 3.56; D 4.22; N 3.85; C 3.41; F 2.51; L 3.35
S5: F 1.45; Q 3.38; A 3.46; T 3.73; M 2.83; W 3.73; E 4.02; G 3.54; K 4.11; Y 1.67; N 3.66; C 3.02; L 2.28; H 3.33; R 3.45; V 3.21; P 3.54; I 2.8; D 4.17
L19: C 4.06; G 4.12; S 4.35; Q 3.96; I 3.95; R 3.98; D 4.64; T 4.22; M 3.81; A 4.02; H 4.26; K 3.79; F 3.7; Y 3.56; P 4.39; W 2.5; N 4.32; E 4.59; V 3.95
V8: Y 3.09; S 3.87; K 4.13; L 3.37; A 3.58; F 3.11; N 4.32; M 3.02; R 3.79; W 1.88; I 3.93; P 4.07; H 4.27; D 4.64; T 4.12; C 3.38; E 3.99; Q 4.2; G 4.52
S11: P 2.88; H 3.01; T 3.71; F 1.7; E 4.2; M 3.5; K 3.84; D 4.42; N 3.76; C 3.15; L 3.03; A 3.44; R 3.77; G 3.73; Q 3.24; I 3.15; V 3.62; Y 2.17
